Two molecules from US20240109945A1 (UNIVERSITY OF GEORGIA RESEARCH FOUNDATION, published 2024) can be followed below.

In one test the target is T1, Asialofetuin (bovine, UniProt P12763 19-359, glycoprotein; desialylated form of Fetuin).
T1 construct: also called AF; desialylated Asialofetuin
T1 sequence (looked up): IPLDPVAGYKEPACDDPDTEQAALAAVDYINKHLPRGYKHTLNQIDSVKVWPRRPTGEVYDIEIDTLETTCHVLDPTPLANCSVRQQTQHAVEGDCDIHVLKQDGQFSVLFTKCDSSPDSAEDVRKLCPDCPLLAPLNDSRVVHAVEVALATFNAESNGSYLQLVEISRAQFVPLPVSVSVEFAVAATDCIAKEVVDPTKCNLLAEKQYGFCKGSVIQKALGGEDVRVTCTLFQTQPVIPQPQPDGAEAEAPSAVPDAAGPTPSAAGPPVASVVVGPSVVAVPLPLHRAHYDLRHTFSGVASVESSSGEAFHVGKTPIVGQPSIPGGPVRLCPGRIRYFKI
Briefly: Western blot, 1 µg glycoprotein, Fbs1 variant as probe. How it is done: (§1) Lanes of each blot are labelled to show results for samples (1 μg each) of glycoproteins Asialofetuin, Fetuin, RNase B, Ovalbumin, Horse Radish Peroxidase, and IgG polyclonal antibody from rabbit, and a non-glycosylated protein RNase A, that were separated by SDS-PAGE, blotted on nitrocellulose membrane, and probed with Fbs1-1 (left blot) or Fbs1-2 (right blot).

In another test the target is T2, Fetuin (bovine, UniProt P12763 19-359, heavily sialylated glycoprotein).
T2 sequence (looked up): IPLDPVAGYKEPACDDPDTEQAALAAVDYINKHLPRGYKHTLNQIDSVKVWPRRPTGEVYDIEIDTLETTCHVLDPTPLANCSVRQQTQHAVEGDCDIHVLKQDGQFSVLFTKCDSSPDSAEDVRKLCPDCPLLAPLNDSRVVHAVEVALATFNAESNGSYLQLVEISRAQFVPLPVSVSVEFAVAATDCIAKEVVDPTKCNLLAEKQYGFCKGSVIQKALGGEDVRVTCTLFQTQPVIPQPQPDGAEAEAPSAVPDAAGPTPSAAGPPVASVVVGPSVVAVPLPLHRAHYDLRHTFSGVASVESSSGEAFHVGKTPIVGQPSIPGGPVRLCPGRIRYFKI
The test is described as above. How it is done:
as §1

B1: Variant Fbs1-1 (designed binder)
chain: MGSSHHHHHHHHSSGENLYFQSHMASQQEGLVPEGSADEERDHWQQFYFLSKRRRNLLRNPCGEEDLEGWSDVEHGGDGWRVEELPGDNGVEFTQDDSVKKYFASSFEWCRKAQVIDLQAEGYWEELLDTTQPAIVVKDWYSGRTDAGSLYELTVRLLSENEDVLAEFATGQVAVPEDGSWMEISHTFIDYGPGVRFVRFEHGGQDSVYWKGWFGARVTNSSVWVEP
notes: Expressed in E. coli and purified by IMAC
Regarding B1, the binding result in the test with Asialofetuin and with Fetuin was “binds” throughout.

B2: Variant Fbs1-2 (designed binder)
chain: MGSSHHHHHHHHSSGENLYFQSHMASQQEGLVPEGSADEERDHWQQFYFLSKRRRNLLRNPCGEEDLEGWSDVEHGGDGWRVEELPGDNGVEFTQDDSVKKYFASSYRWCRKAQVIDLQAEGYWEELLDTTQPAIVVKDWYSGRTDAGSLYELTVRLLSENEDVLAEFATGQVAVPEDGSWMEISHTFIDYGPGVRFVRFEHGGQDSVYWKGWFGARVTNSSVWVEP
With B2, the binding result with Asialofetuin and with Fetuin was “binds” each time.
